This note sets out measurements from publication PMC10491184 (bioRxiv, 2023).

For data set [1], the target named is Escherichia coli transcription termination factor ρ, wildtype (E. coli, UniProt P0AG30 1-419). Briefly: cryo-EM structure.
For data set [2], the target named is Escherichia coli transcription termination factor ρ F89S (E. coli, UniProt P0AG30 1-419, F89S). Briefly: SEC.
Data set [3] has as its target Escherichia coli transcription termination factor ρ K115E (E. coli, UniProt P0AG30 1-419, K115E). The experiment in a line: SEC. For orientation: In gel filtration, larger molecules generally elute earlier.
In data set [4] the target is T1, Rho (transcription termination factor) wt (Escherichia coli, UniProt P0AG30 1-419). The experiment in a line: fluorescence anisotropy. (Fluorescence polarisation rises when a labelled molecule tumbles more slowly, as on binding a larger partner.)
The target in data set [5] is Rho (transcription termination factor) wt;Rof Y13A (Escherichia coli;Escherichia coli, UniProt P0AG30;P0AFW8 1-419;1-84, |Y13A). The experiment in a line: fluorescence anisotropy.
Data set [6] deals with T1, Rho (transcription termination factor) …. The experiment in a line: fluorescence anisotropy. The source holds these as a separate data set.
The target in data set [7] is Rho (transcription termination factor) wt;Rof D14A (Escherichia coli;Escherichia coli, UniProt P0AG30;P0AFW8 1-419;1-84, |D14A). Briefly: fluorescence anisotropy.

Values joined by “and” are separate entries in the source; they are usually repeats but may differ in a detail not shown here. Equal entries are not always repeated.

B1: Escherichia coli Rof, wildtype, tag-less (natural protein, E. coli)
chain: MNDTYQPINCDDYDNLELACQHHLMLTLELKDGEKLQAKASDLVSRKNVEYLVVEAAGETRELRLDKITSFSHPEIGTVVVSES
With B1, the “stoichiometry N” value in data set [1] was 5 Rof molecules per ρ hexamer and 4 Rof molecules per ρ pentamer. The binding result in data set [2] and in data set [3] was “binds” throughout.

B2: rU12 (ssRNA)
RNA: UUUUUUUUUUUU
Turning to B2, the binding result in data set [4] is “binds”.

B3: dC15 (ssDNA)
DNA: CCCCCCCCCCCCCCC
One may read the Kd as the concentration at which binding is half-saturated. Higher therefore signals a looser complex. For B3, the binding result in data set [5] and in data set [7] was “binds” each time. The molecule also had a Kd in data set [6] of 1000 nM.
